From ChEMBL document CHEMBL1137897, “Inhibition of lysosomal cysteine proteases by chrysotherapeutic compounds: a possible mechanism for the antiarthritic activity of Au(I)” (Bioorg Med Chem Lett, 2004)

Key:
[1] = target: AURANOFIN; conditions: Paramecium tetraurelia; 300 nM
Description: Michaelis-Menten constant determined against Paramecium tetraurelia cathepsin L at 300 nM

[2] = target: AURANOFIN; conditions: Paramecium tetraurelia; 3 uM
Description: Michaelis-Menten constant determined against Paramecium tetraurelia cathepsin L at 3 uM

[3] = target: AURANOFIN; conditions: Paramecium tetraurelia; 300 uM
Description: Michaelis-Menten constant determined against Paramecium tetraurelia cathepsin L at 300 uM

[4] = target: AURANOFIN; conditions: Paramecium tetraurelia; 30 uM
Description: Michaelis-Menten constant determined against Paramecium tetraurelia cathepsin L at 30 uM

B1: Putative cathepsin L 3 (Paramecium tetraurelia), Q94715 (protein)
chain: MKQFLTAAIVTLLMTAGYYHLQEDDTNDFERWALKNNKFYTESEKLYRMEIYNSNKRMIEEHNQREDVTYQMGENQFMTLSHEEFVDLYLQKSDSSVNIMGASLPEVQLEGLGAVDWRNYTTVKEQGQCASGWAFSVSNSLEAWYAIRGFQKINASTQQIVDCDYNNTGCSGGYNAYAMEYVLRVGLVSSTNYPYVAKNQTCKQSRNGTYFINGYSFVGGSQSNLQYYLNNYPISVGVEASNWQFYRSGLFSNCSSNGTNHYALAVGFDSANNWIVQNSWGTQWGESGNIRLYPQNTCGILNYPYQVY
[1]
  Km: 27 µM
[2]
  Km: 32 µM
[3]
  Km: 49 µM
[4]
  Km: 47 µM
